Measured values from US20220363781A1 (SICHUAN KELUN BIOTECH BIOPHARMACEUTICAL, published 2022).

T1: monkey TSLP-His (cynomolgus monkey, Macaca fascicularis) (cynomolgus monkey (Macaca fascicularis), UniProt A0A7N9CAT7 29-159)
T1 construct: Whole entry XP_005557555.1 is named; also called cTSLP
T1 sequence: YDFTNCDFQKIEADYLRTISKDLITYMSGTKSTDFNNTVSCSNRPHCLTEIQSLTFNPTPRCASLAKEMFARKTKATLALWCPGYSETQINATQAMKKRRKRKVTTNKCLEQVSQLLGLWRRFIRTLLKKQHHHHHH


Assays:
human TSLP-His [1] = biological target: T2, human TSLP-His (human, UniProt Q969D9 29-159); test: competitive ELISA, hIL7Rα-hTSLPR-hFc coated, hTSLP-His plus hybridoma supernatant, anti-His-HRP
T2 construct: Whole entry NP_149024.1 is named; Expressed in E. coli or HEK293F; also called hTSLP; hTSLP-His
Experimental: (§1) The soluble hIL7Rα-hTSLPR-hFc protein was diluted in 1×CBS coating buffer, then added to 96-well plates, and incubated overnight at CC. The 96-well plate was washed with PBST and blocked with a blocking solution (PBS+2% BSA) at 37° C. for 2 hours. […] The 96-well plates were added with mouse anti-His-HRP, and incubated in an incubator at 37° C. for 1 hour, then washed and read OD at 450 nm.

human TSLP-His [2] = biological target: T2, human TSLP-His; test: cell-based or functional assay
human TSLP-His [3] = biological target: T2, human TSLP-His; test: ELISA, human TSLP-His coated, antibody titrated, anti-rat Fc-HRP
Experimental: (§2) The specific method was briefed as follows: coating human or monkey TSLP-His antigen into 96-well plates, after overnight at 4° C., adding antibodies diluted with different concentration gradients, respectively, after incubating for 2 hours, adding goat anti-rat Fc-HRP secondary antibody, and after incubating for 1 hour, reading the absorption value at 450 nm wavelength by microplate reader.

human TSLP-His [4] = biological target: T2, human TSLP-His; test: ELISA, human TSLP-His coated at 1 µg/mL, hybridoma supernatant, anti-rat IgG-HRP
Experimental: The 96-well plates were washed with PBST and blocked with a blocking solution (PBS+2% BSA) at 37° C. for 2 hours. The hybridomas supernatant, or the same volume of blocking solution were added to plates, and incubated in an incubator at 37° C. for 2 hours. The 96-well plates were added with goat anti-rat IgG-HRP, and incubated in an incubator at 37° C. for 1 hour, then washed and read OD at 450 nm.

human TSLP-His [5] = biological target: T2, human TSLP-His; test: competitive ELISA, hIL7Rα-hTSLPR-hFc coated, hTSLP-His plus titrated antibody, anti-His-HRP
Experimental: as §1
Competitive ELISA was applied to assay the activity of chimeric antibodies of blocking the binding of chimeric receptor hIL7Rα-hTSLPR-hFc to the antigen.

human TSLP-His [6] = biological target: T2, human TSLP-His; test: BLI (Fortebio), antibody on ProA sensor, human TSLP 1.5625-100 nM, 1:1 model
Text: (§3) The dynamic affinity of anti-TSLP fully human chimeric antibody for TSLP was detected by Fortebio, a commonly used dynamic affinity detection device. […] Date analysis 11.0 version (Pall) with 1:1 model was used to determine the association rate constant (Ka) and the dissociation rate constant (Kd), which were then used to calculate the dissociation equilibrium constant (KD).

[7] = biological target: T1, monkey TSLP-His (cynomolgus monkey, …); test: ELISA, monkey TSLP-His coated, antibody titrated, anti-human Fc-HRP
human TSLP-His [8] = biological target: T2, human TSLP-His; test: cell-based or functional assay; remark: listed apart in the source
human TSLP-His [9] = biological target: T2, human TSLP-His; test: ELISA, human TSLP-His coated, antibody titrated, anti-human Fc-HRP
[10] = biological target: T1, monkey TSLP-His (cynomolgus monkey, …); test: ELISA, monkey TSLP-His coated at 1 µg/mL, hybridoma supernatant, anti-rat IgG-HRP
Experimental: The monkey TSLP-His protein was diluted to 1 μg/mL in CBS coating buffer, then added to 96-well plates, and incubated overnight at 4° C. The 96-well plates were washed with PBST and blocked with a blocking solution (PBS+2% BSA) at 37° C. for 2 hours. The hybridomas supernatant, or the same volume of blocking solution were added to plates, and incubated in an incubator at 37° C. for 2 hours. The 96-well plates were added with goat anti-rat IgG-HRP, and incubated in an incubator at 37° C. for 1 hour, then washed and read OD at 450 nm.

[11] = biological target: T1, monkey TSLP-His (cynomolgus monkey, …); test: ELISA, monkey TSLP-His coated, antibody titrated, anti-rat Fc-HRP
Experimental: as §2

[12] = biological target: T1, monkey TSLP-His (cynomolgus monkey, …); test: BLI (Fortebio), antibody on ProA sensor, monkey TSLP 1.5625-100 nM, 1:1 model
Text: as §3

human TSLP-His [13] = biological target: T2, human TSLP-His; test: cell-based or functional assay; remark: listed apart in the source

| hTSLP/hIL7Rα-hTSLPR-hFc inhibition rate (%) (human TSLP-His [1]) | EC50, blocking human TSLP-induced proliferation of Ba/F3-hTSLPR-hIL7Rα cells (CCK8) (human TSLP-His [2]) [nM] | EC50 (human TSLP-His [3]) [nM] | hTSLP binding (OD450) (human TSLP-His [4]) | IC50 (human TSLP-His [5]) [nM] | Kd (human TSLP-His [6]) [nM] | binding result [7] | hTSLP EC50, inhibition of the proliferation of Ba/F3-hTSLPR-hIL7Rα cells (human TSLP-His [8]) [nM] | EC50 (human TSLP-His [9]) [nM] | cTSLP binding (OD450) [10] [OD450] | EC50 [11] [nM] | Kd [12] [nM] | EC50 [7] [nM] | EC50, inhibition of human TSLP-induced PBMC secretion of TARC (human TSLP-His [13]) [nM] | Binder |
| --- | --- | --- | --- | --- | --- | --- | --- | --- | --- | --- | --- | --- | --- | --- |
| – | – | – | – | – | 0.558 | no binding | 0.044 | 1.45 | – | – | – | – | – | recombinant fully human antibody 25A5C5-hIgG (antibody, V domains shown) VH: EVQLVESGGGLVQPGGSLRLSCAASRFTFSRYWMNWVRQAPGKGLEWVANIKQDGNEKYYVDSVKGRFTISRDNAKNSLYLQMNSLRAEDTAVYYCARDRVVGAPDTFDIWGQGTMVTVSS VL: not shown |
| – | – | – | – | – | 1.76 | – | 0.06 | 0.9 | – | – | 20.1 | 0.17 | – | recombinant fully human antibody 37C2D10-hIgG (antibody, V domains shown) VH: QVQLQESGPGLVKPSGTLSLTCAVSGDSISSDNWWNWVRQPPGKGLQWIGEIFHSGRTNYNPSLKSRVTISVDMSKNQFSLKLSSVTAADTAVYFCARDAPNDYGDYGFFDYWGQGILVTVSS VL: DIVMTQSPLSLPVTPGEPASISCRSSQSLLHSNEYNYLDWYLQKPGQSPQLLIYLGSDRASGVPDRFSGSGSGTDFTLKISRVEAEDVGIYYCMQALQTPYTFGQGTKLEIKR |
| – | – | – | – | – | – | – | 0.064 | 1.62 | – | – | – | 0.18 | – | recombinant fully human antibody 27C2B6-hIgG (antibody, V domains shown) VH: QVQLQESGPGLVKPSGTLSLTCAVSGDSISNYNWWSWVRQPPGKGLEWIGEIYHSGRTNYNPSLKSRVTLSVDTSKNQFSLRLSSVTAADTAVYYCARDAPSDYGDYGFFDHWGQGTLVIVSS VL: not shown |
| – | – | – | – | – | 0.604 | – | 0.05 | 1.36 | – | – | – | – | 0.42 | recombinant fully human antibody 90H3H11-hIgG (antibody, V domains shown) VH: QVQLVESGGGVVQPGRSLRLSCAASGFTISNHDIHWVRQAPGKGLEWVTLIWYDGSNQYYADSVKGRFTISRDNSKNTVYLQMNSLRAEDTAVYYCARDDYADYVYFHHWGQGTLVTVSS VL: DIQMTQSPSSLSASVGDRVTITCRASQNINSYLNWYRQKPGKAPELLIYAASSLQSGVPSRFSGSGSGTDFTLTISSLQPEDFATYYCQQSYSTPYTFGQGTELEIKR |

Further lines, the binder ahead of its results:

| Binder | hTSLP/hIL7Rα-hTSLPR-hFc inhibition rate (%) (human TSLP-His [1]) | EC50, blocking human TSLP-induced proliferation of Ba/F3-hTSLPR-hIL7Rα cells (CCK8) (human TSLP-His [2]) [nM] | EC50 (human TSLP-His [3]) [nM] | hTSLP binding (OD450) (human TSLP-His [4]) | IC50 (human TSLP-His [5]) [nM] | Kd (human TSLP-His [6]) [nM] | binding result [7] | hTSLP EC50, inhibition of the proliferation of Ba/F3-hTSLPR-hIL7Rα cells (human TSLP-His [8]) [nM] | EC50 (human TSLP-His [9]) [nM] | cTSLP binding (OD450) [10] [OD450] | EC50 [11] [nM] | Kd [12] [nM] | EC50 [7] [nM] | EC50, inhibition of human TSLP-induced PBMC secretion of TARC (human TSLP-His [13]) [nM] |
| --- | --- | --- | --- | --- | --- | --- | --- | --- | --- | --- | --- | --- | --- | --- |
| chimeric antibody 25A5C5 (antibody, V domains shown, From hybridoma of H2L2 mice: fully human variable regions with rat constant region (rat Fc)) VH: EVQLVESGGGLVQPGGSLRLSCAASRFTFSRYWMNWVRQAPGKGLEWVANIKQDGNEKYYVDSVKGRFTISRDNAKNSLYLQMNSLRAEDTAVYYCARDRVVGAPDTFDIWGQGTMVTVSS VL: not shown | 95.9 | 0.11 | 0.208 | 2.4 | 0.89 | – | – | – | – | – | – | – | – | – |
| chimeric antibody 37C2D10 (antibody, V domains shown, Fully human variable regions with rat constant region (rat Fc)) VH: QVQLQESGPGLVKPSGTLSLTCAVSGDSISSDNWWNWVRQPPGKGLQWIGEIFHSGRTNYNPSLKSRVTISVDMSKNQFSLKLSSVTAADTAVYFCARDAPNDYGDYGFFDYWGQGILVTVSS VL: DIVMTQSPLSLPVTPGEPASISCRSSQSLLHSNEYNYLDWYLQKPGQSPQLLIYLGSDRASGVPDRFSGSGSGTDFTLKISRVEAEDVGIYYCMQALQTPYTFGQGTKLEIK | 81 | 0.28 | 0.3 | 1.1 | 0.51 | – | – | – | – | 1.12 | 0.495 | – | – | – |
| chimeric antibody 27C2B6 (antibody, V domains shown, Fully human variable regions with rat constant region (rat Fc)) VH: QVQLQESGPGLVKPSGTLSLTCAVSGDSISNYNWWSWVRQPPGKGLEWIGEIYHSGRTNYNPSLKSRVTLSVDTSKNQFSLRLSSVTAADTAVYYCARDAPSDYGDYGFFDHWGQGTLVIVSS VL: not shown | 69.8 | 1.22 | 0.221 | 1.4 | 0.77 | – | – | – | – | 1.11 | 0.216 | – | – | – |
| chimeric antibody 90H3H11 (antibody, V domains shown, Fully human variable regions with rat constant region (rat Fc)) VH: QVQLVESGGGVVQPGRSLRLSCAASGFTISNHDIHWVRQAPGKGLEWVTLIWYDGSNQYYADSVKGRFTISRDNSKNTVYLQMNSLRAEDTAVYYCARDDYADYVYFHHWGQGTLVTVSS VL: DIQMTQSPSSLSASVGDRVTITCRASQNINSYLNWYRQKPGKAPELLIYAASSLQSGVPSRFSGSGSGTDFTLTISSLQPEDFATYYCQQSYSTPYTFGQGTELEIK | 87 | 0.25 | 0.139 | 0.7 | 1.65 | – | – | – | – | – | – | – | – | – |
| chimeric antibody 43B1A8 (antibody, V domains shown, Fully human variable regions with rat constant region (rat Fc)) VH: QMQLVESGGGAVQPGRSLRLSCAASGFTFRSYDMHWVRQAPGKGLEWVAVIWYDGSNENYADSVKGRFTTSRDNSKNTLFLQMNSLRAEDTAVYYCARSPLWYGEPDDAFDIWGQGTLVTVSS VL: EIVMTQSPATLSVSPGERATLSCRASQSVSSNLAWYQQKPGQAPRLLISGASTRATGIPARFSGSGSGTDFTLTISSLRSEDFAVYYCQHYNNWPLTFGGGTKVEIK | 80.7 | 0.1 | 0.115 | 1.92 | 1.33 | – | – | – | – | 1.11 | 0.568 | – | – | – |
